Assay: yeast display, Sf9 membrane polyspecificity reagent, FACS + sequencing; frameworks hold sequencing errors
Outline: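 A nanobody's polyreactivity label depends on the gate it was sorted from. Yeast display cells were stained with 10% biotinylated, detergent-solubilized Sf9 membrane reagent for 1 hour at 4 °C, enriched on streptavidin microbeads and sorted by FACS. The low and high (top ~1%) gates were set on anti-HA fluorescence for expression and streptavidin fluorescence for reagent binding.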

| Sequence | polyreactivity (PSR sort gate) |
| --- | --- |
| QVQLVESGGGLVQAGRSLRLSCAASGFTFAYYAMGWYRQAPGKERELVAAISRGGTSTYYADSVKGRFTISRDNAKNTVYLQMNSLKPEDTAVYYCNAVKVGYSLYDYWGQGTQVTVSS | high polyreactivity |
| QVQLVESGGGLVQAGRSLRLSCAASGFTFQSYDMGWYRQAPGKDRELVAAISWSGASTYYADSVKGRFTISRDNAKNTVYLQMNSLKPEDTAVYYCAAGEPTWWGYANDYWGQGTQVTVST | high polyreactivity |
| QVQLVESGGGLVQAGRSLRLSCAASGGLFQKYPMGWYRHAPGKERELVAAISGSGGRTYYADSVKGRFTISRDNAKNTVYLQMNTLKPEDTEVYYCAATLNRYGYDYWGQGTQVTVST | high polyreactivity |
| QVQLVESGGGLVQAGRSLRLSCAASGLTFLAYDMGWYRQAPGKVRQLVAAITGGGSTHYADSVKGRFTISRDNAKNTVYLQMTSLKPDDTAVSYCNADVYVYSVTSHYPSYRLDYWGHGTQVTVSS | high polyreactivity |
| QVQLVESGGGLVQAGRSLRLSCAASGRIFADYAMGWYRQAPGKERQLVAAITSGGTTYADSVKGRFTISRDNAKNTVYLQMNSLKPEDSAVYYCAAQGQGRTGGFGKGSTYGYWGQGTQVTVSS | low polyreactivity |
| QVQLVESGGGLVQAGRSLRLSCAASGRIFAQNAMGWYRQAPGKERELVAAISWGGGGTYYADSVKGRFTISRDNAKNTVYLQMNSLKPEDTAVYYCAADSPGFGAWDRYEYWGQGTQVTVSS | low polyreactivity |
| QVQLVESGGGLVQAGRSLRLSCAASGRIFCYYAMGWYRQAPGKERELVAAITRGGSTYYADSVKGRFTISRDNAKNTVYLQMNSLKPEDTAVYYCAATISGLVKYENDYWGQGTQVTVSS | low polyreactivity |
| QVQLVESGGGLVQAGRSLRLSCAASGRIFGPYTMGWYRQAPGKEREFVAAITRRGGSTYYADSVKGRFTISRDNAKNTGYLQRHSLKPEDTAVYYCAAVGQKRSLGYSWGQGTQVTVSS | low polyreactivity |
| QVQLVESGGGLVQAGRSLRLSCAASGRIFPRNVMGWYRQAPGKERELVAAISSRGTRTYYADSVKGRFTISRDNAKNSVYLQLYSLKPEDTAVYYCAADGPYEGYDYWGQGTQVTVSS | high polyreactivity |
| QVQLVESGGGLVQAGRSLRLSCAASGRIIYGYPMGWYRQAPGIERELVAAITATYYADSVKGRFTISRDNAKNTVYLQMNSLKPEDTAVYYCNAYLSPKQPLSPPDPTFEGGYWGQGTQVTVST | low polyreactivity |
| QVQLVESGGGLVQAGRSLRLSCAASGRTFARYAMGGYRQAPGKERELVAAINSGGSTNYADSVKGRFTISRDNAKNTDYLQMNSLKPEDTAVYYCAADSYWKWYIAYPYYWGQGTQVTVSS | high polyreactivity |
| QVQLVESGGGLVQAGRSLRLSCAASGRTFGANAMGWYRQAPGKERELVAAISYHGTRTYYADSVKGRFTISRDNAKNTVYLQMNSLKPEDTAVYYCAAVGKPGVYQEGDYWGQGTQVTVSS | high polyreactivity |
| QVQLVESGGGLVQAGRSLRLSCAASGRTFGTNAMGWYRQAPGKERELVAAISRRGGSTYYADSVKGRFTISRDNAKNTVYLQMNCLKPEDTAVYYCASDFWYYQYPYGGGGYWGQGTQVTVSS | low polyreactivity |
| QVQLVESGGGLVQAGRSLRLSCAASGRTFPPYDMGWYRQAPGKERELVAAITSDGSTSYADSVKGRFTISRDNAKNTVYLQMNRLKPEDTAVYYCNAEYGYSFGYGYYWWFDYWGQGTQVTVSA | high polyreactivity |
| QVQLVESGGGLVQAGRSLRLSCAASGRTFPYYAMGWYRQAHGKEREFVAAISRRGASTYYADSVKGRFTISRDNAKNTVNLQMNSLKPEDTAVYYCNAVYRCYYSGELDYWGQGTQVTVSS | high polyreactivity |
| QVQLVESGGGLVQAGRSLRLSCAASGRTFSVNAMGCYRQAPVKERELVAAISWDGGSTYYADSVKGRFTISRDNAKNTVYLQMISLKPEDTSVYDCNKDLYYAYDYWGQGSQVTVSS | low polyreactivity |
| QVQLVESGGGLVQAGRSLRLSCAASGSIFEYYAMGWSRQAPGKEWELVAAITESGGSTYYADSVKGRFHNFTRQCEEYRLFTDEQPETGRYRGLLLAADAESYQNDYALDYWGQGTQETVSS | low polyreactivity |
| QVQLVESGGGLVQAGRSLRLSCAASGSIFGWNAMGWYRQAPGKERELVAAINGGDRTNYADSVKGRFTISRDNAKNTVYLQMNSLNTEDTAVYYCGKDFYPTRPGWGGGEYNYWGQGTQVTVSS | low polyreactivity |
| QVQLVESGGGLVQAGRSLRLSCAASGSIFTHNAMGWYRQAPGKERELVASITSRGGITYYADSVKGRFTISRDNAKNTVYLQMNSLKPEDTAVYYCAADLYIYPYDYWGQGTQVTVSS | low polyreactivity |
| QVQLVESGGGLVQAGRSLRLSCAASGYIIYPNAMGWYRQAPGKERELVAAITSGGSTTYADSVKGRFTISRDNAKNTVYVQMNCLKPEDSAVYYCAARFVLWSRTYYSWGQGTQVTVSS | high polyreactivity |
| QVQLVESGGGLVQAGRSLRLSCASSGSTFRVYDMGWYRQAPGNERELVASISYSVGSTYYADSVKGRFTISRDNAKNTVYLQMITLKPEDTEVYFCAARPSYQPSSLARYDYWGQGTQVSVSS | low polyreactivity |
| QVQLVESGGGLVQAGRSLRLSCASSGSTIVNYAMGWYRQAPGKEMELVAAISRSGGRTYYADSVKGRFTISRDNAKNTVYLQMNSLKPEDTAVYYCARLLLSPEYGYWGQGTQVTVSS | high polyreactivity |

| Sequence | polyreactivity (PSR sort gate) |
| --- | --- |
| QVQLVESGGGLVQAGRTLRLSCAASGFTFGRYAMGWYRQAPGKERELVAAISRNGGRTYYADSVKGRFTISRDNAMNTVYFQMNSLKPEDTAVYNCAADGYERKTAQYDYWGQGTQVTVSS | high polyreactivity |
| QVQLVESGGGLVQAGSSLRLSCAASGRTFGGYVMGWYRQAPGKERELVAAISSSAGSTYYADSVKGRFTISRDNAKNTVYLQMNSLKPEDTAVYYCAKRSYNPYDHYYRYQYGYWGQGTQVTVSS | high polyreactivity |
| QVQLVESGGGLVQAGVILRLSCAASGSTFSLYAMGWYRKPPGKERELVAAISWSDGSTYYADSVKGRFTISRDNAKITVYLQMNSLKAEDTAVSYFANASSFAYYRFGYWGQVTQVTVSS | low polyreactivity |
| QVQLVESGGGLVQAGVILRLSCAASGSTIGVNAMGWYRQPPAKERELVAAISLGGGRTYYADSVKGRFTISRDNAKNTVNLQMNCLKPEDTAVYYCNTDFGARMGYWGQGTQVTVSS | high polyreactivity |
| QVQLVESGGGLVQAGVRLRLSFAASGFTFRLYTMGWYRQAPGKERELVAAITYSGDSTYYADSVKGRFTISRDNAKNTVYLQMNSLKPEDTAVYYCAARKYYARYYWGQGTQVTVSS | high polyreactivity |
| QVQLVESGGGLVQAGVSLRLRCASSGSIFRRNVMGWYRQAPGKERELVAAISWSGGRTYYADSVKGRFTISRDNAKNTVYLQMNSLKPEDTAVYYCAAENGYYAYDYWGQGTQVTVSS | high polyreactivity |
| QVQLVESGGGLVQAGVSLRLSCAAAGITFGDYSMGWYRQEPGKEMELVAGIYWSGDGTSYADSVKGRFTISRDNAKNTVYLQMYRLKPEDTAVYYFAAYWYYYLMDYWGQGTQVSVSS | low polyreactivity |
| QVQLVESGGGLVQAGVSLRLSCAASAFILEGYAMGWYTQAPGKERELVAAISDSGGSTYYADSVKGRFTISRDNAKNTVYLQMNSLKPEDTAVYYCATAYYWWTAYSYSYDHWGQGTQVTVSS | high polyreactivity |
| QVQLVESGGGLVQAGVSLRLSCAASGFIFGLYVMGWYRQSPGKERELVAGITWTGGTTYYADSVKGRFTISRDNAKNTVYLQMNSLKPEDTAVYYCATRNYAVVPSVRREGYYWGQGTQVTVSS | low polyreactivity |
| QVQLVESGGGLVQAGVSLRLSCAASGFIFSFNAMGWYRQAPGKERELVAAISRSGGSTRYADSVKGRFTISRDNAKNTVYLQMNCLKPEDTAVYYCNARSPYYSYLLHAYRLFDYWGQGTQVTVSS | high polyreactivity |
| QVQLVESGGGLVQAGVSLRLSCAASGFTFPWYAMGWYLQAPGKERELVAAISWTGGSTYYADSVKGRFTSSRDNPKNTVNLQMLSLKPEDTAVYYCAVGIYDHLYNHEYWGHGTQVTVSS | low polyreactivity |
| QVQLVESGGGLVQAGVSLRLSCAASGGTFLVSAKGWYRQAPGKERQMVAAISVSGGSTYYADSVKGRFTISRDNAKNTVYLQMNSLKPEDTAVYYCAATYSHPFHTYVLRFFAYYYWGQGTQVTVSS | high polyreactivity |
| QVQLVESGGGLVQAGVSLRLSCAASGGTIVGNAMGWYRQAPGKERELVAAMSTNSGSTYYADSVKGRFTISRDNAKNTVYLQMNSLKPEDTAVYYFATRNSSKRRGYYYWGQGTQVTVSS | high polyreactivity |
| QVQLVESGGGLVQAGVSLRLSCAASGIIFRGNAMGWYRQAPGKERELVASICRRGGSTYYADSVKGRFTISRDNAKNTVYLQMNSLKPEDTAVYYCNAYGSTYVYGPYDYWGQGTQVTVSS | high polyreactivity |
| QVQLVESGGGLVQAGVSLRLSCAASGIILRYYVMGWYRQAPGKERELVAAITSRGGSTYYADSVKGRFTISRDNAKNTVYLQMNSLKPEDTAVYYCAAGYRNVNTFDYWGQGTQVTVSS | high polyreactivity |
| QVQLVESGGGLVQAGVSLRLSCAASGNIFGVYTMGWYRQAPGQEREFVAAISDGGSTYYADSVKGRFTISRDNAKNTVYLQMIRLKPEDTAVYYCAALIYGPDRVVDEFVYWGQGTQVTVSS | low polyreactivity |
| QVQLVESGGGLVQAGVSLRLSCAASGNTFKYYPMGWYRQAPGKEWELVAGITGTGGRTNYADSVKGRFTISRDNAKNTVYLQMTSLKPEDTAVYYFAADYWWYTGYDYWGQGTQVTVSS | high polyreactivity |
| QVQLVESGGGLVQAGVSLRLSCAASGRIFGYNDMGWYRQAPGKERELVAAINWTGGSTYYADSVKGRFTISRDNAKNTVYLQMNSLKPEDTAVYYCNADARTKWVQTHTDFITDYDYWGQGTQVTVSS | low polyreactivity |
| QVQLVESGGGLVQAGVSLRLSCAASGRTFAYNDMGCYRQAPGKERELVAAISWSDGTTYYADSVKGRFTSSRDNAKNTVYLQMNSLKPEDTAVYYCAAESYPSEVASYVSEYDYWGQGTQVTVSS | low polyreactivity |
| QVQLVESGGGLVQAGVSLRLSCAASGSIFVHYDMGWYRPAPGKERELVADIDYSGGSTYYADSVKGRFTISRDYAKNTVYLQMNSLKPEDTAVYDCAAERRRWGLDYYYWGQGTQVTVSS | high polyreactivity |
| QVQLVESGGGLVQAGVSLRLSCAASGSTFTANAMGWYRQAPGKERELVAAITNSDGSTYYADSVKGRFTISRDNAKNTVYLQINSLKPEDTAVYYCAKDYYACFWEMDYWGQGTQVTVSS | low polyreactivity |

Reference: the nanobody polyreactivity screen of Harvey et al. (2022)
